Molecular target: RseP of E. faecalis LMG3358 (membrane-bound Zn-dependent site-2 protease) (E. faecalis) (UniProt Q9RPP2)
Sequence of UniProt Q9RPP2 (Q9RPP2 whole entry): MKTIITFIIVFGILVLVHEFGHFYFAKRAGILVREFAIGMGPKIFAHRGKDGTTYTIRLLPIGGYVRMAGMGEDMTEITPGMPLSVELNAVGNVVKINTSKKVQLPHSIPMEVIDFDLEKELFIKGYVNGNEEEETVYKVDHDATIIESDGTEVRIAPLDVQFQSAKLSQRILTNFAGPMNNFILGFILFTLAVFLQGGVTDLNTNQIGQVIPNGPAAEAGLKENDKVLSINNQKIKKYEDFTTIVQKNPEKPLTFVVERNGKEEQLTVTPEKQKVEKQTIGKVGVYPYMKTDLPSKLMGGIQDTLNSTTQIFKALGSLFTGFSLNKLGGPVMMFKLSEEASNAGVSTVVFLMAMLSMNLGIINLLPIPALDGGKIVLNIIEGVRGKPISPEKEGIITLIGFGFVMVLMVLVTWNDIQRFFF

| Substance | MIC (nM) of the bacteriocin against S. pneumoniae ds220 induced to express E. faecalis rseP (microtiter plate growth inhibition; non-induced cells and cells without rseP >4500 nM) | MIC (nM) of the bacteriocin against S. pneumoniae ds220 induced to express E. faecalis rseP (microtiter plate growth inhibition; non-induced cells and cells without rseP >5500 nM) |
| --- | --- | --- |
| Enterocin EJ97 (peptide) | 18 nM | – |
| Enterocin K1 (peptide) | – | 700 nM |

Source: article PMC5413573
